Consider two molecules from PMC12719032, “Structural and biophysical insights into RomR, MglB, and MglC interactions involved in regulating cell polarity in Myxococcus xanthus” (The Journal of Biological Chemistry, 2025).

Sequences and labels used below:
B1: MglC (mutual gliding-motility protein C) (natural protein, M. xanthus, UniProt Q1D0B6 1-120, looked up)
chain: MSFRTHLESVVNQVEGALACSVMGFDGISVDTFQKDESAELDLNGAWVEYANLLTQLRNAAETLKTGTVSEVSVNSEKVLTVMRLVSPDYFLVLALHADGNFGKGRYVLRVTAPKVRAEL
notes: MglC of Myxococcus xanthus (DSM no. 16526, type strain), Uniprot ID Q1D0B6; Homodimer by ASEC and SEC-SAXS; source: E. coli Rosetta (DE3), purified (Ni-NTA, SEC)
B2: RomR^371-420 (C-terminal helix of RomR, residues 371-420) (domain or fragment, M. xanthus, UniProt Q1D3Z1 371-420, looked up)
chain: DGGEALLREALSKASREVIEKIAWEVVPQLAETIIREELERLIKDRETQH
notes: synthetic gene from Invitrogen, cloned in pET-Duet-A with a TEV site; no tag cleavage is described; Trimer by SEC-SAXS; also called RomR C-terminal helix; helical domain of RomR; source: E. coli Rosetta (DE3), purified (Ni-NTA, SEC); not shown: His tag, N-terminal, kept

In series [1] the target is RomR^327-420 (C-terminal region of RomR, residues 327-420) (M. xanthus). Briefly: ITC; MicroCal Auto-iTC200; 50 μM RomR^327-420/RomR^371-420 in the cell titrated with 500 μM MglC; 30 injections; one-site model; triplicate. For orientation: In ITC the heat of successive injections is recorded.
Series [2] has as its target B2. The series is described as above. To be noted: both partners purified.
The target in series [3] is RomR^327-420 (C-terminal region of RomR, residues 327-420) (M. xanthus). The experiment in a line: BLI; Octet RED 96; RomR^327-420/RomR^371-420 immobilised on AR2G sensors by EDC/NHS; MglC in solution; 20 mM HEPES pH 8.0, 150 mM NaCl, 10% glycerol; 1:1 binding model. On the technique in general: BLI is a label-free optical method that tracks binding on a fibre tip over time.

Series [4] concerns the molecule itself. The experiment in a line: SEC-SAXS; BM29, ESRF; Advance BioSEC 300 column; 20 mM Hepes pH 8.0, 150 mM NaCl, 10% glycerol; Mw from Porod volume, fits of models to the scattering data. A general note: Size exclusion chromatography separates by hydrodynamic size, large species first.
Series [5] deals with T1, MglB-MglC complex (preformed) (M. xanthus, UniProt Q1DB03 1-159; Q1D0B6 1-120).
T1 construct: MglB of Myxococcus xanthus, Uniprot ID Q1DB03; as m7; MglC of Myxococcus xanthus, Uniprot ID Q1D0B6; as m1; also called MglBC; source: purified proteins from E. coli Rosetta (DE3), MglB and MglC premixed in a 2:1 ratio; copies: 4 + 2
T1 sequence (looked up) 1: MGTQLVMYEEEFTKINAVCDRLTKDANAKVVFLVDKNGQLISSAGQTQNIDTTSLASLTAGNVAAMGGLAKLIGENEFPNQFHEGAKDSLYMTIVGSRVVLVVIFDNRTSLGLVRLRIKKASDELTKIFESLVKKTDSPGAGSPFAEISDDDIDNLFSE
T1 sequence (looked up) 2: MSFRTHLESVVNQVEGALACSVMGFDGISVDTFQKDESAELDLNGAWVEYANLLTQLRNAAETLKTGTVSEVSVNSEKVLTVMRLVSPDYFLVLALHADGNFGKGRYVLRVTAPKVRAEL
Briefly: ITC; MglB and MglC premixed 2:1; 25 μM of the complex in the cell titrated with 300 μM RomR^371-420; one-site model; triplicate. The conditions noted are these: both partners purified.

Series [6] has as its target B1. The experiment in a line: ITC; MicroCal Auto-iTC200; 50 μM RomR^327-420/RomR^371-420 in the cell titrated with 500 μM MglC; 30 injections; one-site model; triplicate. To be noted: both partners purified.
Series [7] has as its target B1. Briefly: BLI; Octet RED 96; RomR^327-420/RomR^371-420 immobilised on AR2G sensors by EDC/NHS; MglC in solution; 20 mM HEPES pH 8.0, 150 mM NaCl, 10% glycerol; 1:1 binding model. To be noted: both partners purified.
Series [8] addresses T1, MglB-MglC complex (preformed). Briefly: BLI; Octet RED 96; RomR^371-420 immobilised on AR2G sensors by EDC/NHS; MglB-MglC complex in solution; 20 mM HEPES pH 8.0, 150 mM NaCl, 10% glycerol; 2:1 (heterogeneous ligand) model and steady state analysis. To be noted: both partners purified.

For orientation: Kd means a measure of binding affinity in units of concentration. The low end stands for tighter binding, the high end for weaker binding. Broadly, the stoichiometry N is a count of units in the complex or per binding partner. The koff is the first-order rate constant of dissociation. Read a high koff as a short-lived complex. The kon is a measure of how fast the partners come together. Read a low kon as slower complex formation. In series [1], B1 showed a Kd of 4.2 nM and a stoichiometry N of 0.67. For the same molecule, in series [2], the dH was -2.59 kcal/mol and the “stoichiometry N” value was 0.65. In series [3], the Kd was 5.5 nM, the off-rate constant (koff) is 0.000805 s⁻¹ and the kon worked out at 146000 M⁻¹ s⁻¹. The “stoichiometry N” value in series [4] stood at 2.
On to B2, for which, in series [5], the Kd was around 150 nM and the dH was -6.07 kcal/mol. Moreover, binding in series [6] was characterised by a dissociation constant (Kd) of 2.6 nM. In series [4], the “stoichiometry N” value came to 3. In series [7], binding was put at a Kd of 2.8 nM, the koff was 0.000652 s⁻¹ and the kon is 228000 M⁻¹ s⁻¹. Further, binding in series [8] was put at a Kd of 280 nM.
